The source of these data is the nanobody polyreactivity screen of Harvey et al. (2022).

The series can be described thus: yeast display, Sf9 membrane polyspecificity reagent, FACS + sequencing; frameworks hold sequencing errors. The procedure, abridged: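 Galactose induction of a Saccharomyces cerevisiae BJ5465 synthetic nanobody display library ran 36–48 hours. The cells were then stained for 1 hour at 4 °C with 10% biotinylated, detergent-solubilized Sf9 membrane reagent, pulled down on streptavidin microbeads and FACS-sorted into low and high (top ~1%) gates on expression and reagent-binding fluorescence. Labels for polyreactivity follow the gate of origin.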
As for “QFQLEESGVGLVQAGGSLRLSCAASGFTFNVYAMGWYRQAPGKERELVAAIRWGAGSTYYADSVKGRFTISRDNAKNTVYLQMNSLKPEDTAVYYCAKDSGVWRYDHWGQGTQVTVSS”, the “polyreactivity (PSR sort gate)” value is recorded as “low polyreactivity”.
Then “QFQLLESGGGLVQAGGSLRLSCAASGSIFTRNAIGWYRQAPGSERELVAAITSAGSTSYADSVKGRFTISRDNAKNTVYLQMNSQKPEDTAVYYCNTVPGRYRTFDYWGQGTQVTVSS”, with “high polyreactivity”; and “QFQLLESGGGLVQAGGSLRLSCADSGSIYLYYARGWYRQAPGKESELVAAITYSGVSTYDAVSVKGRFTISRDTSNNTVYLQMNSLKPEDNAFYDCARRWNAFGSKGVYWGQGTQVTVSS”, with “high polyreactivity”.
In the case of “QFQLLESGGGLVQAGSSLRLSCAASGSTFKYYTMGWYRQAPGKERELVATIRGAGTTYADSVKGRFTISRDNAKHTVYLQMNSLKPEDTAVYYCARLPRGDMDYWGQGTQVTVSS”, the “polyreactivity (PSR sort gate)” value is recorded as “low polyreactivity”.
In the case of “QFQLQESCCGLVQAGGSLRLSCAASGTISYAPQMGWYRQAPGKERELVAGITIGGTTYYADSVKGRFTISRDNAKNTVYLQMNSLSPGDTAVYYCAAHSEQYTPFYYWGQGTQVTVSS”, the “polyreactivity (PSR sort gate)” value is given as “low polyreactivity”.
Then “QFQLVDSGGALVQAGGSLRLSCAASGFTFYPYAMGWYRQAPGKERELVAAISKRGGSTYYADSVKGRFTISRDHAKNTVYLQMNSLNPEDTAVYYCIAFFNGELYYWGQGTQVTVSS”, with “high polyreactivity”; and “QFQLVESCAGLVQAGGSLRLSCADSGRIFRQYAMGWYIPAPGKERELVASITRNGGSTYYADSVKGRFTISRDNAKNTVYLQMNSQKPEDTAVYYCAKDVKGSYAYDSWGQGTQVTVSS”, with “high polyreactivity”.
On to “QFQLVESGGGFVQAGGSLRLSCAASGRIFGPYAMGWYRQAPGKERELVAAISFSGSGTYYADSVKGRFTISRDNAKNTVYLQMNSLKPEDTAVYYCAATSRKIVAYDHDYWGQGTQVTVSS”, for which the “polyreactivity (PSR sort gate)” value is “low polyreactivity”.
Take “QFQLVESGGGFVQAGGSLRLSCAASGYTFQRYAMGWYRQAPGKERELVATISKRGGSTYYADSVKGRFTISRDNAKNTDYLQMNSLKPEDTAVYYCNKLRGLHNGYDYWGQGTQVTVSS”: the “polyreactivity (PSR sort gate)” value is recorded as “high polyreactivity”.
The result for “QFQLVESGGGLDQAGGSLRLSCAASGFTFQYYAMGWYRQAPGKERELVAAITRGDSTNYADSVKGRFTISRDNAKNTVYLQMNSLKPEDTAVYYCAAGSAPSYWGGWYYERDYWGQGTQVTVSS” reads “low polyreactivity”; that for “QFQLVESGGGLDQAGGSLRLSCAASGITFGNYAMGWYRQAPGKERELVAAITGSGGRTNYADSVKGRFTISRDNAKNTVYLQMNSLKPEDTAVYYCNRRQYGRKKQYDYWGQGTQVTVSS”, “high polyreactivity”.
In the case of “QFQLVESGGGLDQAGGSLRLSCAASGLIFSTYSMGLYIQARGKETELVAAISGTGSTYYADSVKGRFTISRDNAKNTVYLQMNSLKPEDTAVYYCNADTYYAGRRYDYWGQGTQVTVSS”, the “polyreactivity (PSR sort gate)” value is on record as “low polyreactivity”.
Turning to “QFQLVESGGGLDQAGGSLRLSCAASGLIFYNYDMGWYRQAPGKERELVAAITLDGGITYYADSVKGRFTISRDNAKNTVYLQLNSLKPEDTAVYYCNRQYRLYGGYPSNLYEYWGQGTQVTVSS”, the “polyreactivity (PSR sort gate)” value is on record as “high polyreactivity”.
With “QFQLVESGGGLDQAVGSLRLSCAASGSIFYPNVMGGYREAPGKEREMVAAIRTSGGSTYYADSVQGRFTISRETAKNTVYLQMNSLKPEDTAVYYCAAKRTGNGYPRSGYYRYEYWGHGTQVTVSS”, the “polyreactivity (PSR sort gate)” value was “high polyreactivity”.
Then “QFQLVESGGGLVHAGGSLRLSCAASGITYWAYSMGWYRQARGKERELVAAIRFRGRTYYADSVKGRFTISRDNAKNSVYLQMNSLKAEDTAVYYFDADLSYWDDFEYWGQGNQVTVSS”, with “low polyreactivity”; and “QFQLVESGGGLVQAAGSLRLSCAASGSTFVSNAMGWYRQAPGKDRELVAAITRSGGSTRDADSVKGRLTISRDNAKNTGYLQMNSLKPEDTAVYYCAAPHKYYGLRYYYWGQGTQVTVSS”, with “high polyreactivity”; and “QFQLVESGGGLVQAGCSLRLSCAASGGTFGLYAMGWYRQAPGKERELVAANTWSDSSTYYADSVKGRFTISRDNAKNTVYLQMNSLKPEDNAVYYCAADYGDADTWWPSAEYHSGRDYWGQGTQVTVSS”, with “low polyreactivity”.
Then “QFQLVESGGGLVQAGCSLRLSCAASGLTVGSNTMGWDRQAPGKERELVAAITSNGGSTYYADSVKGRFTISRDNAKNTVYLQMNSLIPEDTAVYYCAADDRGLISRRGYFYLSYDYWGQGTQVTVSA”, with “low polyreactivity”.
The result for “QFQLVESGGGLVQAGGILRLSCAASGFTFRVNAMGWYRQAPGKERELVASITVSDGRTYYADSVKGRFTISRDNAKNTVYLQMNSLKPEDCAVYYCAADYKGAFTTDWSSEYEYWGQGTQVTVSS” reads “low polyreactivity”; that for “QFQLVESGGGLVQAGGSHRLSCAASGRIFSYYAMGWYRQAPGNERELVATITSGGNTNYADSVKGRFTISLDNAKNTVYLQMNSLKPEDTAVYYCKAAERQWYDAYDYWGQGTQVTVSS”, “low polyreactivity”.
For the sequence “QFQLVESGGGLVQAGGSLLLSCAASGRTFDWYAMGWYRLAPGKERELVAGISGSSGRTYYADSVKGRFTISRDNAKNTVYLQMNSLKPEDTAVYYCAADFSFWKLVYYQSGRYDYWGQGTQVTVSS”, the “polyreactivity (PSR sort gate)” value was “high polyreactivity”.
Consider “QFQLVESGGGLVQAGGSLRLICAASGFIFRTYAMGWYRQAPGKAREFVAAITFSAGSTYYADSVKGRFTISRDNAKNTVYLQMNSLLPEDSAVYDCNVLKSWYGYSVTGRYVYWGQGTQVTVSS”, for which the “polyreactivity (PSR sort gate)” value is reported as “low polyreactivity”.
The result for “QFQLVESGGGLVQAGGSLRLRCAPSGNTLIVKAMGWYRQAPGKEMELVAAITRDGRTNYADSVKGRFTISRDNAKNTVYLQMNSLKPEDTAVYYCAAEGVPDALDRDYWGQGTQVTVSS” reads “low polyreactivity”; that for “QFQLVESGGGLVQAGGSLRLSCAASGCTLQRNNRGWYRQAPGKDSEFVARISRRACSTYYADSVKGRITISRDNAKNTVYLQMNSLKPEDTAVYYCSTEDRGLTTRYPYDYWGQGTQVTVSS”, “high polyreactivity”.
For “QFQLVESGGGLVQAGGSLRLSCAASGFIFGLYAMGWYRQAPGKERELVAAISRSGGSTYYADSVKGRFTISRDNAKNTVYLQMNSLKPEDTAVYYCNARYSWPRANWYDYWGQGTQVTVSS”, the “polyreactivity (PSR sort gate)” value is recorded as “high polyreactivity”.
Then “QFQLVESGGGLVQAGGSLRLSCAASGFIFKRYTMGWYRQAPGKERELVAAISFSGGSTYYADSVKGRFTISRDNAKNTVYLQMNSLKPEDTAVYYCAKVYRVVPATQKEYGYWGQGTQVTVSS”, with “high polyreactivity”; and “QFQLVESGGGLVQAGGSLRLSCAASGFIFKSNAMGWYRQAPGKERELVAAITKRGGSTYYADSVKGRFTISGDYAKNTVYLQMNSLKPEDTAVYYCAVRKPYSRYTVNYDSWGQGTQVTVSS”, with “high polyreactivity”; and “QFQLVESGGGLVQAGGSLRLSCAASGFIFPLYTMGWYRQAPGKETELVAAIDGGGTTYADSVKGRFTISRDNAKNTVYLQMNSLKPEDTAVYYCAADWYYQYSIYRYGYWGQGTQVTVSS”, with “low polyreactivity”.
The result for “QFQLVESGGGLVQAGGSLRLSCAASGFIFQRYAMGWYRQAPGKERELVAAINFSGGSTYYADSVKGRFTISRDNAKNTVYLQMNSLKPEDTAVYYCNTGNITQTKSIFDYWGQGSQVTVSS” reads “high polyreactivity”; that for “QFQLVESGGGLVQAGGSLRLSCAASGFIFTNYAMGWYRQAPGKEWELVAAINRSGGRTYYADSVKGRFTISRDNAKNTVYLQMNSLKPEDNAVYYCAAKGVSYRPAYDYWGQGTQVTVSS”, “high polyreactivity”.
In the case of “QFQLVESGGGLVQAGGSLRLSCAASGFNFGWYDMGWYRQAPGKERELVASISWSGSSTYYADSVKGRFTISRDNAKNTVYLQMNSLKPEDTAVYYCATPYWRRYDYWGQGTQVTVSS”, the “polyreactivity (PSR sort gate)” value is recorded as “high polyreactivity”.
Turning to “QFQLVESGGGLVQAGGSLRLSCAASGFTFSGYAMGWYRQAPGKERELVAAINWRGDSTYYADSVKGRFTISRDNAKNTVYLHMNSLKPEDTAVYYCYVVLGPQRYSTDYGYWGQGTQVTVSS”, the “polyreactivity (PSR sort gate)” value is listed as “high polyreactivity”.
The result for “QFQLVESGGGLVQAGGSLRLSCAASGFTFTVYAMGWYRQAPGKERELVAAITRGTSTYADSVKGRFTISRDNAKNTVYLQMNSLKPEDTAVYYCAARSSPWYTRYRSSELFDYWGQGTQVTVSS” reads “high polyreactivity”.
In the case of “QFQLVESGGGLVQAGGSLRLSCAASGFTIGPYTMAWYRQAPGKERELVAAISYSGASTYYADSVKGRFTISRDNAKNTVYLQMNSLKPEDTAVYYCNTVYRFTRARYPYDYWGQGTQVTVSS”, the “polyreactivity (PSR sort gate)” value is “high polyreactivity”.
Then “QFQLVESGGGLVQAGGSLRLSCAASGFTSYRNALGWYRQAPGKERELVAAISRGDSTYYADSVKGRFTISRDNAKNTVYLQMNSLKAEDTAVYYCATPPTVYGWLAGYDYWGQGTQVTVSS”, with “low polyreactivity”; and “QFQLVESGGGLVQAGGSLRLSCAASGIIFYENNMGWYRQAPGKERELVAAINSGGSTYYADSVKGRFTISRDNAKNTVYLQMNSLKPEDTAVYYCDADDYSGLYYSSTYRYEYWGQGTQVTVSS”, with “low polyreactivity”.
Then “QFQLVESGGGLVQAGGSLRLSCAASGINFSSYVMGWYRQAPGKERELVAAISKSGARTSYADSVKGRFSISRDNAKNTVYLQMNSLKPEDTAVYYCNAYTESWYPIYFFGWSYTAVDYWGQGTQVTVSS”, with “low polyreactivity”; and “QFQLVESGGGLVQAGGSLRLSCAASGITFYRYAMGWYRQAPGKERELVASISSRGSSTYYADSVKGRFTISRDNAKNTVYLQMNSLKPEDTAVYYCAKSRGSRGFVASTYNYWGQGTQVTVSS”, with “high polyreactivity”.
As to “QFQLVESGGGLVQAGGSLRLSCAASGLIFYFYAMGWYRQAPGKEREFVAAISSGGDTYYADSVKGRFTISRDNAKNTVYLQMNSLKPEDNAVYYCAARRYRRGRSDYWGQGTQVTVSS”, the “polyreactivity (PSR sort gate)” value is reported as “high polyreactivity”.
The result for “QFQLVESGGGLVQAGGSLRLSCAASGRIFARNTMGWYRQAAGKERELVAAITYSGGNTYYADSVKGRFTISRDNAKNTVYLQMNSLKPEDTAVYDCNKASFGRLRKKIMDYWGQGTQVTVSS” reads “high polyreactivity”.
